Reference: paper PMC3062166 (Molecular cell, 2011)

Experiments:
SBP-RNF20 (baculovirus) = SBP-RNF20 (baculovirus) (human, UniProt Q5VTR2 1-975); assay: pull-down + SEC
SFB-RNF40 (baculovirus) = SFB-RNF40 (baculovirus) (human, UniProt O75150 1-1001); assay: pull-down + SEC
Sequence of SFB-RNF40 (baculovirus) (O75150 whole entry): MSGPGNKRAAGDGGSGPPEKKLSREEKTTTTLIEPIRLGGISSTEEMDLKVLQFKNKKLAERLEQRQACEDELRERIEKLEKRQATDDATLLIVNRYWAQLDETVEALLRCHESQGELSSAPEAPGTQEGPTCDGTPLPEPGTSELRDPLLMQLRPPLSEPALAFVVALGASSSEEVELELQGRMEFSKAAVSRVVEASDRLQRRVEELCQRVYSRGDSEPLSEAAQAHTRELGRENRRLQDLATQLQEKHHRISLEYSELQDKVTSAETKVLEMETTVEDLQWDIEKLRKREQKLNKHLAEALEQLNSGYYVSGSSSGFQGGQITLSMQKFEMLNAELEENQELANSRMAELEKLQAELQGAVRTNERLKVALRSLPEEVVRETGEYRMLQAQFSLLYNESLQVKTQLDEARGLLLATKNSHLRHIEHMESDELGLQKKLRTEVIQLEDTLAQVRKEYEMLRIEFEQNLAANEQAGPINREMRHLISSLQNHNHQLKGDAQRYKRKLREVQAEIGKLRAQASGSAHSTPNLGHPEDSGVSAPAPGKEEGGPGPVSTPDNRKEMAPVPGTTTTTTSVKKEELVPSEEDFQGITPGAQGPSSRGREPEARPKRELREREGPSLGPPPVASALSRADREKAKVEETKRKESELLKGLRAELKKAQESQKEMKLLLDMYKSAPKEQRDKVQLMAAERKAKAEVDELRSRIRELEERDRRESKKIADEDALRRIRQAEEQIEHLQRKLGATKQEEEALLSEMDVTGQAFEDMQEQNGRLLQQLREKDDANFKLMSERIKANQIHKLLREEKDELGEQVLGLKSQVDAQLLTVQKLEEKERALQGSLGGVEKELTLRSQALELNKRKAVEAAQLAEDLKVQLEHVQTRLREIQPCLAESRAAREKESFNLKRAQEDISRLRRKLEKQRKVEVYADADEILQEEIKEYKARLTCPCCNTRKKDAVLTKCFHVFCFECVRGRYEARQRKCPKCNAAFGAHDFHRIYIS

Sequence of SBP-RNF20 (baculovirus) (Q5VTR2 whole entry): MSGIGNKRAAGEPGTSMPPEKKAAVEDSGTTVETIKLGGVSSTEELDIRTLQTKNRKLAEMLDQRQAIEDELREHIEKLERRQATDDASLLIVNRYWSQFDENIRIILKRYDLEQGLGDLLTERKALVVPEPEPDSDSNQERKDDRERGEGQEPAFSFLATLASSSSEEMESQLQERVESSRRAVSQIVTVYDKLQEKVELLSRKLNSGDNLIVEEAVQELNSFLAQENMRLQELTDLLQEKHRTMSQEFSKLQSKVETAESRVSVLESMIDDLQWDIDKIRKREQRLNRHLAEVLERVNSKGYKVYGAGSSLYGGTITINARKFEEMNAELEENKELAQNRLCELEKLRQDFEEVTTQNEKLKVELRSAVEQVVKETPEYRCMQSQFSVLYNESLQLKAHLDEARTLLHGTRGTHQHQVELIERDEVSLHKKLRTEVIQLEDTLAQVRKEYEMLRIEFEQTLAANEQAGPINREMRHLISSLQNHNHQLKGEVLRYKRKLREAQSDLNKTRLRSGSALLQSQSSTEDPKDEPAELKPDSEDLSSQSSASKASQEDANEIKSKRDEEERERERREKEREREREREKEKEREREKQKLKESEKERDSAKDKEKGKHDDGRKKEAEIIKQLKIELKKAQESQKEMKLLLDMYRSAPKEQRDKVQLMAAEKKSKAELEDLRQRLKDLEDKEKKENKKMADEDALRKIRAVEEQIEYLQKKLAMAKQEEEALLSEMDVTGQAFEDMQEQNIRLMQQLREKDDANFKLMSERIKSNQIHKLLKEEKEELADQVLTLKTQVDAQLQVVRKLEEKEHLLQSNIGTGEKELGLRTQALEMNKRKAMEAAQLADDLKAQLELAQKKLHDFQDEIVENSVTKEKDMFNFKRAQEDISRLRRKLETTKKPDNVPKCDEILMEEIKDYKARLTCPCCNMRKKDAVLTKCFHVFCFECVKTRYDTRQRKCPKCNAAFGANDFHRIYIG

B1: untagged WAC (baculovirus) (natural protein, UniProt Q9BTA9 1-647, looked up)
chain: MVMYARKQQRLSDGCHDRRGDSQPYQALKYSSKSHPSSGDHRHEKMRDAGDPSPPNKMLRRSDSPENKYSDSTGHSKAKNVHTHRVRERDGGTSYSPQENSHNHSALHSSNSHSSNPSNNPSKTSDAPYDSADDWSEHISSSGKKYYYNCRTEVSQWEKPKEWLEREQRQKEANKMAVNSFPKDRDYRREVMQATATSGFASGMEDKHSSDASSLLPQNILSQTSRHNDRDYRLPRAETHSSSTPVQHPIKPVVHPTATPSTVPSSPFTLQSDHQPKKSFDANGASTLSKLPTPTSSVPAQKTERKESTSGDKPVSHSCTTPSTSSASGLNPTSAPPTSASAVPVSPVPQSPIPPLLQDPNLLRQLLPALQATLQLNNSNVDISKINEVLTAAVTQASLQSIIHKFLTAGPSAFNITSLISQAAQLSTQAQPSNQSPMSLTSDASSPRSYVSPRISTPQTNTVPIKPLISTPPVSSQPKVSTPVVKQGPVSQSATQQPVTADKQQGHEPVSPRSLQRSSSQRSPSPGPNHTSNSSNASNATVVPQNSSARSTCSLTPALAAHFSENLIKHVQGWPADHAEKQASRLREEAHNMGTIHMSEICTELKNLRSLVRVCEIQATLREQRILFLRQQIKELEKLKNQNSFMV
stoichiometry N (SBP-RNF20 (baculovirus)): ~1 WAC per RNF20 (2:2)
stoichiometry N (SFB-RNF40 (baculovirus)): ~1 WAC per RNF40 (2:2)
